B1: muNS (1-448)-HA (other)
chain: MASTKWGDKPMSVSMSHDGSSIRSAASQFLSGPLFHSTPIPPQRKTVLLKFMIGDELVTVQGALAPFDEYWYDNQPLLAQAVEMLASADRLRQFEHYEKFLLKKGHQITEIMNRLRLFFTDVLKVKMEADALPALAQYLMVGTLEAVSTADSPDACVPVTSKILAKQQTIAKSPGRLDEEEYNVIRSRFLTHEVFDLTSDLPGVQPFMDMYYATVPRADSTGWCVYRRKGLLIHAPDEQFSDLTIFSTRLTASRELQLVAGDVAVACFDLMDVSDIAPSHHASVQEERTLGTSRYSNVTANDHPLVFFSPSALRWAIDHACTDSLVSTRNIRVCVGIDPLVTRWTRDGVQEAAILMDDKLPSAGRARMALRTLLLARRSPMTSFLLGALKQSGGQLMEHYRCDAANRYGSPTVPVSHSPPCSKCPELKEQITKLSSSPLPKIDSNVGP
notes: also called N-terminus domain (muNS(1-448)); N-terminus region
B2: muNS (1-154)-HA (other)
chain: MASTKWGDKPMSVSMSHDGSSIRSAASQFLSGPLFHSTPIPPQRKTVLLKFMIGDELVTVQGALAPFDEYWYDNQPLLAQAVEMLASADRLRQFEHYEKFLLKKGHQITEIMNRLRLFFTDVLKVKMEADALPALAQYLMVGTLEAVSTADSPD
B3: muNS (1-380)-HA (other)
chain: MASTKWGDKPMSVSMSHDGSSIRSAASQFLSGPLFHSTPIPPQRKTVLLKFMIGDELVTVQGALAPFDEYWYDNQPLLAQAVEMLASADRLRQFEHYEKFLLKKGHQITEIMNRLRLFFTDVLKVKMEADALPALAQYLMVGTLEAVSTADSPDACVPVTSKILAKQQTIAKSPGRLDEEEYNVIRSRFLTHEVFDLTSDLPGVQPFMDMYYATVPRADSTGWCVYRRKGLLIHAPDEQFSDLTIFSTRLTASRELQLVAGDVAVACFDLMDVSDIAPSHHASVQEERTLGTSRYSNVTANDHPLVFFSPSALRWAIDHACTDSLVSTRNIRVCVGIDPLVTRWTRDGVQEAAILMDDKLPSAGRARMALRTLLLARRSP

Biological target: muNS-Mi, region 448-635 of avian reovirus S1133 muNS protein (avian Orthoreovirus (avian reovirus …))
Assay: co-expression with muNS-Mi in CEF cells, anti-HA immunofluorescence

Binder	binding result
B1	no binding
B2	no binding
B3	no binding

Reference: patent US20120301493A1 (UNIVERSIDADE DE SANTIAGO DE COMPOSTELA, published 2012)
